In the Human Domainome abundance scans (Beltran et al. 2025):
± gives the uncertainty stated by the source.

B1: Intersectin-2, residues 1129 to 1183; numbered along this chain, Q9NZM3 (parent)
chain: VCQVIAMYDYAANNEDELSFSKGQLINVMNKDDPDWWQGEINGVTGLFPSNYVKM

Variants of: B1
Experiment: abundance fitness (aPCA) (normalised: wild type 0, dead -1); higher = more abundant; growth selection in yeast, the domain comes from the species named
Settings: Homo sapiens

Abundance fitness: each site, then its substitutions
G43: D -0.044 ± 0.045; T -0.128 ± 0.044; M -0.08 ± 0.041; H -0.025 ± 0.058; L -0.175 ± 0.034; S -0.024 ± 0.033; Q -0.202 ± 0.067; I -0.865 ± 0.1; K 0.029 ± 0.04; Y -0.237 ± 0.068; R -0.069 ± 0.036; A -0.044 ± 0.03; V -0.765 ± 0.045; P -0.908 ± 0.075; E -0.032 ± 0.037; W -0.404 ± 0.067
Q38: C -0.027 ± 0.066; P -0.654 ± 0.061; W -0.276 ± 0.068; N -0.248 ± 0.073; H 0.04 ± 0.056; T -0.038 ± 0.034; M -0.074 ± 0.041; Y -0.012 ± 0.072; G -0.05 ± 0.044; F -0.059 ± 0.063; V -0.033 ± 0.039; E -0.003 ± 0.055; D -0.024 ± 0.058; R -0.029 ± 0.031; I 0.105 ± 0.06; A -0.009 ± 0.039; S -0.046 ± 0.036; K 0.005 ± 0.053; L -0.072 ± 0.029
W36: L -0.029 ± 0.03; N -0.023 ± 0.038; C -0.003 ± 0.056; V -0.052 ± 0.039; H -0.054 ± 0.047; A -0.092 ± 0.048; G -0.626 ± 0.055; D -0.323 ± 0.028; K 0.045 ± 0.054; P -1.03 ± 0.11; T 0.011 ± 0.04; Y -0.054 ± 0.06; R -0.019 ± 0.031; S -0.1 ± 0.035; E -0.108 ± 0.04; I -0.159 ± 0.072; M 0.002 ± 0.032
V44: E -0.108 ± 0.062; A -0.006 ± 0.043; C -0.023 ± 0.045; Q -0.083 ± 0.066; D -0.117 ± 0.062; T -0.052 ± 0.053; I 0.027 ± 0.051; M -0.169 ± 0.061; K -0.056 ± 0.05; Y -0.101 ± 0.057; W -0.151 ± 0.049; P -0.438 ± 0.054; N -0.049 ± 0.046; G 0.001 ± 0.039; H 0.028 ± 0.058; F -0.098 ± 0.045; S -0.046 ± 0.034; R -0.055 ± 0.034; L -0.033 ± 0.041
N42: K -0.093 ± 0.054; D -0.16 ± 0.063; G -0.042 ± 0.034; H 0 ± 0.041; Y -0.082 ± 0.032; A -0.013 ± 0.049; W -0.148 ± 0.044; I -0.196 ± 0.062; R -0.054 ± 0.036; F -0.126 ± 0.055; V -0.1 ± 0.039; E 0 ± 0.042; Q -0.084 ± 0.05; T -0.01 ± 0.051; C 0.014 ± 0.064; M -0.046 ± 0.045; L -0.068 ± 0.037; S -0.021 ± 0.031; P -0.473 ± 0.038
T45: A -0.044 ± 0.028
W37: C -0.516 ± 0.041; M -0.283 ± 0.061; V -0.78 ± 0.061; G -0.826 ± 0.043; E -0.928 ± 0.071; T -0.854 ± 0.08; L -0.384 ± 0.03; I -0.615 ± 0.095; A -0.857 ± 0.099; P -0.582 ± 0.045; S -0.805 ± 0.064; R -0.787 ± 0.058; N -0.771 ± 0.12; F -0.156 ± 0.037; Q -0.699 ± 0.1; D -0.865 ± 0.18; K -1.03 ± 0.095
I41: A 0.016 ± 0.028; V -0.055 ± 0.042; D -0.624 ± 0.065; Q -0.085 ± 0.06; S -0.038 ± 0.04; M -0.032 ± 0.049; K -0.094 ± 0.052; F 0.079 ± 0.053; C -0.148 ± 0.052; R -0.028 ± 0.031; E -0.478 ± 0.07; H 0.022 ± 0.062; N -0.159 ± 0.068; T -0.017 ± 0.049; P -1.01 ± 0.088; L -0.012 ± 0.037
G39: Y -0.878 ± 0.24; D -0.726 ± 0.099; H -0.896 ± 0.3; R -1.06 ± 0.073; Q -0.992 ± 0.21; P -0.864 ± 0.12; A -0.699 ± 0.06; N -0.831 ± 0.18; F -0.854 ± 0.29; V -1.02 ± 0.079; C -0.995 ± 0.12; W -1.18 ± 0.22; T -0.89 ± 0.11; E -0.913 ± 0.098; K -0.999 ± 0.091; I -0.942 ± 0.14; S -0.937 ± 0.12
E40: C -0.037 ± 0.044; F -0.142 ± 0.056; Q -0.114 ± 0.049; S 0.003 ± 0.036; R -0.059 ± 0.04; M -0.08 ± 0.058; Y -0.176 ± 0.06; W -0.15 ± 0.05; G -0.157 ± 0.036; A -0.055 ± 0.031; K -0.037 ± 0.06; H -0.08 ± 0.052; D -0.045 ± 0.046; P -0.963 ± 0.14; N -0.143 ± 0.063
D35: R -0.021 ± 0.031; K -0.071 ± 0.062; S -0.035 ± 0.031; Q -0.099 ± 0.055; V -0.04 ± 0.033; N -0.032 ± 0.043; Y -0.075 ± 0.042; L -0.029 ± 0.035; M -0.1 ± 0.043; P -0.39 ± 0.038; W -0.145 ± 0.045
